These results are taken from patent publication US20100143942A1, “METHOD OF DETECTION” (LEIDEN UNIVERSITY, priority 2006, published 2010).

Where two headings read alike, the source gives them in different places.

One assay addresses T1, Ty (Streptomyces antibioticus, UniProt P07524).
T1 construct: The S.a; Ty is a monomeric protein with a molecular mass of ˜30 kDa
Briefly: Dye emission switching ratio (Fred/Foxy) of N-terminally labelled Ty. The conditions noted are these: dye attached to Ty; excitation at 280 nm; Trp line = native protein. The source says: (§1) To illustrate the present invention two type-3 copper proteins have been selected: Hc from the arthropod Carcinus aestuarii (Mediterranean crab) and Ty from the soil bacterium Streptomyces antibioticus. The C.a. Hc consists of a mixture of hexamers and dodecamers, which are self-assembled from three different types of subunits. The S.a. Ty is a monomeric protein with a molecular mass of ˜30 kDa. The structure of Ty from S. castaneoglobisporus has recently been solved. S.a. Ty has 91% sequence similarity (82% indentity) with S.c. Ty and can be easily modelled on the S.c. structure. […] Dissociation can be achieved by incubating the Hc at high pH and in the absence of divalent metal ions. Both conditions were met in our experiments and we will assume, therefore, that the Hc used in this study was present in the form of monomers. The data on O2 binding (vide infra) confirms this assumption.
Both Hc and Ty were labelled at their N-terminus with each of the five dyes. […] The peak around 330 nm is a second-order artefact. In a solution containing dye and protein separately (not linked) this peak (280 nm) was missing. […]
In all cases, an increase in label emission was observed after deoxygenating the sample (FIG. 4A). […] The Cy3 fluorescence is specific for the labelled protein, while the Trp emission derives mainly (>95%) from unlabelled Hc. […]

For assay [1] the following is noted: literature [14]; read-out: literature dissociation constant (O2); cited from earlier work.
The conditions of assay [2]: literature [12], [13]; cited from earlier work.
For assay [3] the following is noted: literature [15]; read-out: literature Kd (iodide); cited from earlier work.
A short description of assay [4]: O2 binding curve of labelled Ty; [O2] calculated from Hc-Atto390 fluorescence in the same sample during deoxygenation. Also noted: species or system Streptomyces antibioticus. The conditions noted are these: label fluorescence vs [O2] determined from Hc-Atto390; read-out: Kd (O2 binding curve fitted to Hill equation).
Source text: as §1, with “Both conditions were met in our experiments and we will assume, therefore, that the Hc used in this study was present in the form of monomers. The data on O2 binding (vide infra) confirms this assumption.” left out
The fact that the described method works for labels showing widely different emission wavelengths opens the possibility to observe two or more constructs in the same sample using a single excitation wavelength. […] The circles refer to the oxygen concentration (right scale) as calculated from the fluorescence of the Hc-Atto390. The left scale refers to the Ty-Atto655 fluorescence. […]
The [O2] at each time-point in the trace was determined using the response of Hc-Atto390 fluorescence with Eq. 1 and the oxygen dissociation constant and the Hill coefficient determined in an independent O2 titration (FIG. 6A). The Ty-Atto655 fluorescence was then plotted as a function of the determined [O2] at each time-point (FIG. 6B). […]

Assay [5] can be described thus: Titration of a mixture of Hc-Alexa350 and Ty-Cy5 with iodide in air-saturated solution, emission upon excitation at 280 nm. The assay is classed as binding. Conditions: fitted to Eq. 1, read-out: apparent Kd (iodide). Here is the method: The specificity of the method is illustrated by the data presented in FIG. 7, which show a titration of a mixture of Hc-Alexa350 and Ty-Cy5 with iodide in an air-saturated solution. […] Hc. […] The small fluorescence decrease of the latter can be ascribed to the aspecific collisional quenching of the label and/or the Trp fluorescence by iodide. […] The difference between the experimental Kd and the literature value of 3.0±0.3 mM [15] may be related to its dependence on the [O2] in the sample, which may have varied between the two experiments.

T1 sequence (P07524 whole entry): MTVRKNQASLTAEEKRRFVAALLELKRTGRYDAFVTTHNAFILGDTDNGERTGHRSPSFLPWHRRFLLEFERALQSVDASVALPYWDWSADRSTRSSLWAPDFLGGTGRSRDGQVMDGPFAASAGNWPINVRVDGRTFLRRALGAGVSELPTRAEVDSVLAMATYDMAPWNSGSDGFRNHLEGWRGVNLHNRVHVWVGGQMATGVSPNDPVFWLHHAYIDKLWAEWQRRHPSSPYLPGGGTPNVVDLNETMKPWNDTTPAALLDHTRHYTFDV

As for `Cc1cc(=O)oc2cc3c(cc12)C(C)CC(C)(C)N3CCCC(=O)O` (stereo not shown) [Atto390], at Ty, the “SR Tyr (switching ratio Fred/Foxy)” value was determined as 2.2.

Take `CCN1C(=CC=CC2=[N+](CCCCCC(=O)O)c3ccc(S(=O)(=O)O)cc3C2(C)C)C(C)(C)c2cc(S(=O)(=O)[O-])ccc21` [Cy3]: on Ty, the “SR Tyr (switching ratio Fred/Foxy)” value was found to be 2.8.

B1: Ty: Ty from the soil bacterium Streptomyces antibioticus, monomeric type-3 copper protein of ~30 kDa (protein, UniProt P07524 2-273, looked up)
Tyrosinase: TVRKNQASLTAEEKRRFVAALLELKRTGRYDAFVTTHNAFILGDTDNGERTGHRSPSFLPWHRRFLLEFERALQSVDASVALPYWDWSADRSTRSSLWAPDFLGGTGRSRDGQVMDGPFAASAGNWPINVRVDGRTFLRRALGAGVSELPTRAEVDSVLAMATYDMAPWNSGSDGFRNHLEGWRGVNLHNRVHVWVGGQMATGVSPNDPVFWLHHAYIDKLWAEWQRRHPSSPYLPGGGTPNVVDLNETMKPWNDTTPAALLDHTRHYTFDV
Turning to B1, the results for the Kd in assay [1] and in assay [3] were 16 µM and 3000 ± 300 µM, respectively. For the same molecule, the O2 dissociation rate in assay [2] was ~300 s⁻¹.

B2: Ty-Cy5: Streptomyces antibioticus tyrosinase labelled at its N-terminus with the dye Cy5 (conjugate, UniProt P07524 2-273, looked up)
Tyrosinase: B1 Tyrosinase
modifications: N-terminal Cy5 label
Consider B2, for which the Kd in assay [4] was 15 µM; in assay [5], 4400 ± 300 µM.
